Results taken from IntAct's records for PubMed 18060821.

B1: MAPK phosphothreonine lyase (Salmonella enteritidis), P0A2N1 (parent)
chain: MPINRPNLNLNIPPLNIVAAYDGAEIPSTNKHLKNNFNSLHNQMRKMPVSHFKEALDVPDYSGMRQSGFFAMSQGFQLNNHGYDVFIHARRESPQSQGKFAGDKFHISVLRDMVPQAFQALSGLLFSEDSPVDKWKVTDMEKVVQQARVSLGAQFTLYIKPDQENSQYSASFLHKTRQFIECLESRLSENGVISGQCPESDVHPENWKYLSYRNELRSGRDGGEMQRQALREEPFYRLMTE

Variants of: B1
Conditions: with mk07_human MAPK7, Q13164
mk07_human MAPK7, Q13164, sequence (Q13164 whole entry, looked up): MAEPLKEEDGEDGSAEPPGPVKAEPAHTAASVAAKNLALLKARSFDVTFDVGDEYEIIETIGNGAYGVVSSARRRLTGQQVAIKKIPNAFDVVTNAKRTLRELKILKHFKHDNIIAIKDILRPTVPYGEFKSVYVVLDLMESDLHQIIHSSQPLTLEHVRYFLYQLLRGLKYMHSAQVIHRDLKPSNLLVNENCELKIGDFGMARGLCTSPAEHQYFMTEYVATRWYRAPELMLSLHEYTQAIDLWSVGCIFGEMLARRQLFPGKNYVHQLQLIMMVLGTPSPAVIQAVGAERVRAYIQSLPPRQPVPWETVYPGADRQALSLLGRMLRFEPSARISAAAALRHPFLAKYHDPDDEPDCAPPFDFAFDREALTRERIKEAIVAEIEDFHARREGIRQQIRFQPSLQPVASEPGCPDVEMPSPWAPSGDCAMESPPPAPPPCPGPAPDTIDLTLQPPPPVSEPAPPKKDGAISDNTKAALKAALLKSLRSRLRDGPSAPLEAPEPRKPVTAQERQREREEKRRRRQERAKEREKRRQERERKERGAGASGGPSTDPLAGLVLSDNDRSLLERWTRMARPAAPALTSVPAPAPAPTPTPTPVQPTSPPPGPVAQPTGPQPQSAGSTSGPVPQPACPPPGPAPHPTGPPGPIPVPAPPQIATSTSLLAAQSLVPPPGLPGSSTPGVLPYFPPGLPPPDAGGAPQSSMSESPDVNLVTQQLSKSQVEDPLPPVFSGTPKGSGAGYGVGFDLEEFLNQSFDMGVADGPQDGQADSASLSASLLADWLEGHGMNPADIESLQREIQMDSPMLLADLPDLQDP

Row | Variant | effect of a mutation on the interaction
1 | MPINRPNLNLNIPPLNIVAAYDGAEIPSTNKHLKNNFNSLHNQMRKMPVSHFKEALDVPDYSGMRQSGFFAMSQGFQLNNHGYDVFIHARRESPQSQGKFAGDKFHISVLRDMVPQAFQALSGLLFSEDSPVDKWAVTDMEKVVQQARVSLGAQFTLYIKPDQENSQYSASFLHKTRQFIECLESRLSENGVISGQCPESDVHPENWKYLSYRNELRSGRDGGEMQRQALREEPFYRLMTE [K136A] | with no effect

Variants of: B1
Conditions: with mk07_human MAPK7, Q13164
Remark: another data set of the same source

Row | Variant | effect of a mutation on the interaction
2 | MPINRPNLNLNIPPLNIVAAYDGAEIPSTNKHLKNNFNSLHNQMRKMPVSHFKEALDVPDYSGMRQSGFFAMSQGFQLNNHGYDVFIHARRESPQSQGKFAGDKFHISVLRDMVPQAFQALSGLLFSEDSPVDKWAVTDMEKVVQQARVSLGAQFTLYIKPDQENSQYSASFLHKTRQFIECLESRLSENGVISGQCPESDVHPENWKYLSYRNELRSGRDGGEMQRQALREEPFYRLMTE [K136A] | causing an interaction
3 | MPINRPNLNLNIPPLNIVAAYDGAEIPSTNKHLKNNFNSLHNQMRKMPVSHFKEALDVPDYSGMRQSGFFAMSQGFQLNNHGYDVFIHARRESPQSQGKFAGDKFAISVLRDMVPQAFQALSGLLFSEDSPVDKWAVTDMEKVVQQARVSLGAQFTLYIKPDQENSQYSASFLHKTRQFIECLESRLSENGVISGQCPESDVHPENWKYLSYRNELRSGRDGGEMQRQALREEPFYRLMTE [H106A;K136A] | disrupting interaction
